Experimental data: patent US20260133192A1 (FRED HUTCHINSON CANCER CENTER, published 2026)
Each block holds one binder with its values, some of them ahead of it. *1 amine or outer side, *2 acyl side, *3 side chain or, on linkers, in order; H or OH if unused. Where no end group is shown, it is not given here. [ ]: non-standard residue; d: D form. βAsp = O=C(O)[C@H](CC(=O)[*:2])N[*:1]; Cit = NC(=O)NCCC[C@H](N)C(=O)O

Columns and labels:
Test in all cases: B cells sorted with PTM-peptide tetramers; PTM epitope to which the cloned antibody binds, Table 7
[1] = target: T1, TFRC-1 PTM peptide DFPAA{Cit}RLYW (human)
T1 construct: Synthetic citrullinated fragment of TFRC
T1 peptide: DFPAA[Cit]RLYW
Source text: (§1) Once the immunogenic PTM peptides targeted by autoantibodies were identified, PTM-specific autoantibodies were isolated directly from SCLC patients and sequenced (FIG. 13). To accomplish this, PTM-binding B cells were enriched from SCLC patient peripheral blood mononuclear cells using PTM-peptide tetramers. PTM-peptide tetramers were created by combining PE- or APC-labeled magnetic tetramers containing streptavidin cores with biotinylated PTM peptides identified to bind more AAb from SCLC patient plasma compared to wildtype peptides. Five different PTM peptides were included in each PTM-tetramer; 5 citrullinated TFRC peptides were conjugated to PE-tetramers and 5 isoaspartylated peptides (3 CA9, 1 PLD3 and 1 SPINK1) were conjugated to APC-tetramers. These PTM-tetramers were then incubated with pooled peripheral blood mononuclear cells (PBMCs) from 3 different SCLC patients and tetramer bound cells were isolated with magnetic microbeads. This PTM-tetramer ‘enriched’ fraction was labeled with fluorescent antibodies and fluorescence activated cell sorted (FACS) into single cells. PTM-tetramer+ B cells were sorted, heavy and light chain antibody sequences from each B cell were amplified by RT-PCR, and heavy and light chain pairs were successfully sequenced. These sequences were cloned into human IgG expression vectors for antibody production and are shown in Table 7 with the location of the CRs underlined. The sequences of the CDRs were determined using the ImMunoGeneTics (IMGT) information system domain gap align.

[2] = target: T2, TFRC-2 PTM peptide DFPAAR{Cit}LYW (human)
T2 construct: Synthetic citrullinated fragment of TFRC
T2 peptide: DFPAAR[Cit]LYW
Source text: as §1

[3] = target: T3, TFRC-5 PTM peptide LND{Cit}VMRVC (human, also: biotinylated, site not given here)
T3 construct: Synthetic citrullinated fragment of TFRC; biotinylated on tetramers for B cell sorting
T3 peptide: LND[Cit]VMRVC
Source text: as §1

[4] = target: T4, CA9-3 PTM peptide GV{isoAsp}SSPR (human)
T4 construct: Synthetic isoaspartylated fragment of CA9
T4 peptide: GV[βAsp]SSPR
Source text: as §1

[5] = target: T5, SPINK1-1 PTM peptide YNEL{iso-Asp}GCTKI (human)
T5 construct: Synthetic isoaspartylated fragment of SPINK1
T5 peptide: YNEL[βAsp]GCTKI
Source text: as §1

[6] = target: T6, TFRC-4 PTM peptide LNDRVM{Cit}VEYC (human, also: biotinylated, site not given here)
T6 construct: Synthetic citrullinated fragment of TFRC; biotinylated on streptavidin tetramers for B cell sorting
T6 peptide: LNDRVM[Cit]VEYC
Source text: as §1

binding result [1]: binds | binding result [2]: binds
B1: 2H5 (antibody, V domains shown)
VH: EVQLLESGGGLAQPGGSLRLSCGASGFTFSSHALSWVRLAPGKGLEWVSAISGSGDRTYYADSVKGRFTISRDNSKNMLYLQMNSLRGEDTAVYYCAKEATESYATSWGQGTLVTVSS
VL: DIQMTQSPSTLSASVGDRVTITCRASQSISSWLAWYQQKPGKAPNLLISKAFSVESGVPSTFSGSGSGTEFTLTISSLQPRDSASYYCQQYDSGWTFGQGTKVEIK

binding result [3]: binds
B2: 2H8 (antibody, V domains shown)
VH: QVQLVESGGGVVQPGRSLRLSCAASGFTFSTYGMHWVRQAPGKGLQWVAQISNDGSSKYYGDSVKGRFTISRDNSKNTLYLQMNSLRVEDTGVYYCASSGSSGTWGQGTQVTVSS
VL: EIVLTQSPATLFLFPGERVTFSCRASQSVNNYLAWYQQKPGQAPRLLIYDVSNRATGIPARFSGSGSGTDFTLTISSLDPEDFAVYFCQQRSNWPLTFGGGTKVEIK

binding result [4]: binds
B3: 1B3 (antibody, V domains shown)
VH: QVQLVESGGGLVQPGGSLRLSCAASGFTFSSYWMSWVRQAPGKGLEWVANIKQDGSEEYYVDSVKGRFTISRDNAKSLLYLQMNSLRPEDTAVYYCAGDSLPSSGWEGYFQHWGQGTLVTVSS
VL: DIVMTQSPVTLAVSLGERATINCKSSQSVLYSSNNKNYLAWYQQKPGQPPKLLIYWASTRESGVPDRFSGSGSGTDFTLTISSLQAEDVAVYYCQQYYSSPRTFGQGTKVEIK

binding result [5]: binds
B4: 1A6 (antibody, V domains shown)
VH: QAGLLESGGGVVQPGRSLRLSCAASGFTFSSYGMHWVRQAPGKGLEWVAVIWYDGSNKYYADSVKGRFTISRDNSKNTLYLQMNSLRAEDTAVYYCARGGGITGTVSRKQGMDVWGQGTLVTVSS
VL: AIQLTQSPSSLSASVGDRVTITCRASQGISSYLAWYQQKPGKAPKLLMYGASTLQSGVPSRFSGSGSGTDFTLTISSLQPEDFATYYCQQVNSYPLTFGGGTKVEIK

binding result [6]: binds
B5: 2D2 antibody (antibody, V domains shown)
VH: QVQLVESGGGVVQPGRSLRLSCAASGFTFNSFALMWVRQAPGKGLEWVAVISNDGSNTYYADSVKGRFTISRDNSKNTLYLQMNSLRAEDTAVYYCARGSQYYGSGRYSRKQFDYWGQGTMVTVSS
VL: DIQMTQSPLSLPVTPGEPASISCRSSQSLLHADDGNTYLDWYLQKPGQSPQLLIYTLSSRASGVPDRFSGSGSGTNFTLRISRVEAEDVGVYYCMQRIESPLTFGGGTKVEIK
notes: From B cells of SCLC patient PBMCs; Labeled with CF770 for the in vivo imaging; also called 770-labeled 2D2 antibody
